In patent US20230192796A1 (published 2023):

Target: T1, Human IL-10Rβ on cells (Daudi, Jurkat, YT-1, THP-1 cell lines; primary human PBMC populations) (human, UniProt Q08334 20-325)
T1 sequence (looked up): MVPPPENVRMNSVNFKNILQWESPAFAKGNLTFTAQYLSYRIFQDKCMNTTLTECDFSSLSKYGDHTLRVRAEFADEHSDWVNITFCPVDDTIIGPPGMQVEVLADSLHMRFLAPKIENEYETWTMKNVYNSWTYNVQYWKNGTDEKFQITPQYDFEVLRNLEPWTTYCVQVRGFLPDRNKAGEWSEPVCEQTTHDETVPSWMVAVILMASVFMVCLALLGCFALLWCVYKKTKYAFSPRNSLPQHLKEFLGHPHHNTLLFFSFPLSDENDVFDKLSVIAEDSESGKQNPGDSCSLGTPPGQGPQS
Assay: cell-based or functional assay

- ratio of super-10 to 10-DE STAT3 Emax in Daudi cells: > 20 ratio (super-10:10-DE)
- ratio of super-10 to 10-DE STAT3 Emax in THP-1 cells: ~1 ratio (super-10:10-DE)
B1: Affinity matured IL-10 clone 5.1 (Super-10), soluble (ligand)
chain: SPGQGTQSENSCTHFPGYLPNMLRDLRDAFSRVKTFFQMKDQLDNLLLKESLLEDFKGYLGCQALSEMIQFYLEEVMPQAENQDPDIKAHVQSLGENLKDLRLWLRRCHRFLPCENKSKAVEQVKNAFNKLQEKGIYKAMSEFDIFINYIEAYMTMKIRNHHHHHH
